Results: the supplement of paper PMC11780869

Test system: Bacillus subtilis
Assay: cleaved RNA product abundance (RNA/gDNA barcode ratio) relative to median wild-type variant (ratio to wild type); higher = more accumulation of the downstream cleavage product
Summary of the method: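 Sequencing of barcodes from gel-selected, reverse-transcribed cleaved RNA and from genomic DNA, with UMI collapsing, yielded a per-construct RNA:gDNA ratio. Scaled to the median construct with the unmutated site, this ratio is the cleaved product abundance. The barcoded reporters (truncated aprE or tetM mRNAs with mutagenized RNase Y cleavage-site windows) were integrated into the B. subtilis chromosome, and cultures grew in LB at 37°C from OD600 0.0003 to 0.3.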

[1] = experiment (reporter, strain, medium): exp 8a: truncated aprE reporter, strain BJT201 with 2% xylose (RNase J1 expressed), cleavage site: glnRA (positions -5 to +31 mutated)
[2] = experiment (reporter, strain, medium): exp 2b: truncated aprE reporter, strain BJT200, cleavage site: cggR-gapA (positions -7 to +36 mutated)
[3] = experiment (reporter, strain, medium): exp 4a: truncated aprE reporter, strain BJT201 with 2% xylose (RNase J1 expressed), cleavage site: cggR-gapA (positions -7 to +36 mutated)
[4] = experiment (reporter, strain, medium): exp 6: tetM reporter, strain 168, cleavage site: cggR-gapA (positions -7 to +36 mutated)

Sequence	cleaved RNA product abundance [1]	cleaved RNA product abundance [2]	cleaved RNA product abundance [3]	also measured
CGACATGTCCCGCTTCTTTCATTAATCAGTTAGCAACTGTTTTGCTATATATATTTACCTTTTAAGAGGAGGAAT	0.759	–	–	–
CGACATGTCCCGCTTCTTTCATTAATCCCTTAGCAACTATTTTGCTATATACATTTACCTTTTAAGAGGAGGAAT	0.323	–	–	–
ACAGACGAAGGAGCCGCAAAGAAGTTATTAAGGGATGAATAATCCCTCCATATAAATATCTCTCACTTATTTAAA	–	0.243	0.341	cleaved RNA product abundance [4]: 0.34
CGACATGTCCCGCTTCTTTCATTAATCCGTAAGCAACTGTTTGGCTATATACATTTACCTTTTAAGAGGAGGAAT	0.371	–	–	–
ACAGACGAAGGAGCCGCAAAGAAGTGATTAAGGGATGAATAATCCCTCAATATAAAAATCTCTCACTTATTTAAA	–	–	0.728	–
ACAGACGAAGGAGCCGCGAAGAAGTTATTAAAGGATGAATAATCCCTCAATATAAATATCTCTCACTTATTTAAA	–	–	0.258	–
CGACATGTCCCGCTTCTTTCATTAATCAGTTGGCAACTGTTTTGCTATATACATTTACCTTTTAAGAGGAGGAAT	0.497	–	–	–
CGACATGTCCCGCTTCTTTCATTATTCCGTTATCAACTGTTTTGCTATACACATTTACCTTTTAAGAGGAGGAAT	0.188	–	–	–
ACAGACGAAGGAGCCGCAAAGAAGTTGTTAAGGGATGAATAATACCTCAATATAAATATCTCTCACTTATTTAAA	–	0.101	–	cleaved RNA product abundance [4]: 0.134
CGACATGTCCCGCTTCTTTCATTAATCCGTTAGCAACTGTTTTGCTAAATTCATTTACCTTTTAAGAGGAGGAAT	0.133	–	–	–
CGACATGTCCCGCTTCTTTCATTAATCCGTTAGCAACTGTTTTGCTATATACATTTACCGTTTAAGAGGAGGAAT	0.948	–	–	–
CGACATGTCCCGCTTCTTTCATTAATCCGTTAGTATCTGTTTTGCTATATACATTTACCTTTTAAGAGGAGGAAT	0.422	–	–	–
CGACATGTCCCGCTTCTTTCATTAATCCGTTAGCAATTGTTTTGCTATATACCTTTACCTTTTAAGAGGAGGAAT	0.3	–	–	–
ACAGACGAAGGAGCCGCAAAGCAGTTATTAAGGGATGAATATTCCCTCAATATAAATATCTCTCACTTATTTAAA	–	0.832	0.898	–
ACAGACGAAGGAGCCGCAAAGAAGTTATTAAGGGATGAATAAACCCTCAACATAAATATCTCTCACTTATTTAAA	–	0.122	0.0675	–
CGACATGTCCCGCTTCTTTCATTAATCGCTTAGCAACTGTTTTGCTATATACATTTACCTTTTAAGAGGAGGAAT	0.335	–	–	–
ACAGACGAAGGAGCCGCAAAGAAGTTATTAAGGGCTGAATAATCCCTAAATATAAATATCTCTCACTTATTTAAA	–	–	0.537	–
CGACATGTCCCGCTTCTTTCATTAATCCCTTAGCAACTGTTTTGCTAGATACATTTACCTTTTAAGAGGAGGAAT	0.127	–	–	–
ACAGACGAAGGAGCCGCAAAGAAGTTATTAAGGGATGAATAATCAGTCAATATAAATATCTCTCACTTATTTAAA	–	–	0.0967	–
ACAGACGAAGGAGCCGCAAAGAAGTTATAAAGGGATGAATAATCCCTCCATATAAATATCTCTCACTTATTTAAA	–	–	0.266	–

Sequence	cleaved RNA product abundance [1]	cleaved RNA product abundance [2]	cleaved RNA product abundance [3]	also measured
CGACATGTCCCGCTTCTTTCATTAATCCGTTAGCAACTATTTTTCTATATACATTTACCTTTTAAGAGGAGGAAT	0.613	–	–	–
ACAGACGAAGGAGCCGCAAAGAAATTATTAAGGGATGAATAATCCCTCAATATACATATCTCTCACTTATTTAAA	–	–	0.46	–
CGACATGTCCCGCTTCTTTCATTAATACGTAAGCAACTGTTTTGCTATATACATTTACCTTTTAAGAGGAGGAAT	0.225	–	–	–
ACAGACGAAGGAGCCGCAAAGAAGTTATTAAGAGATGAATAATCCCTCAAAATAAATATCTCTCACTTATTTAAA	–	0.101	0.106	–
ACAGACGAAGGAGCCGCAAATAAGTTATTAAGGGATGAATAATCCCTCTATATAAATATCTCTCACTTATTTAAA	–	0.34	0.439	–
CGACATGTCCCGCTTCTTTCATTAATCCGTTAGCAACAGTTTTGCTATACACATTTACCTTTTAAGAGGAGGAAT	0.557	–	–	–
ACAGACGAAGGAGCCGCAAAGTAATTATTAAGGGATGAATAATCCCTCAATATAAATATCTCTCACTTATTTAAA	–	–	0.645	–
ACAGACGAAGGAGCCGCAAATAAGTTATTAAGGGATGAATAATCCCTCAATATAAATAACTCTCACTTATTTAAA	–	–	0.44	–
ACAGACGAAGGAGCCGCAAATAAGTTATTAAGGGATGAATAATCCATCAATATAAATATCTCTCACTTATTTAAA	–	0.172	0.261	–
ACAGACGAAGGAGCCGCAAAGAAGTTATTAAGTGATGAATAATTCCTCAATATAAATATCTCTCACTTATTTAAA	–	0.0685	0.14	–
CGACATGTCCCGCTTCTTTCATTAATCCGGTATCAACTGTTTTGCTATATACATTTACCTTTTAAGAGGAGGAAT	0.375	–	–	–
ACAGACGAAGGAGCCGCAAATAAGTTATTAAGGGGTGAATAATCCCTCAATATAAATATCTCTCACTTATTTAAA	–	–	0.273	–
ACAGACGAAGGAGCCGCAAAGAAGTTATTAAGGGATGAATTATCCTTCAATATAAATATCTCTCACTTATTTAAA	–	0.232	0.284	–
CGACATGTCCCGCTTCTTTCATTAATCCCTTAGCAACTGTTTGGCTATATACATTTACCTTTTAAGAGGAGGAAT	0.204	–	–	–
ACAGACGAAGGAGCCGCAAAGAAGTTATTAAGGGATGAATAATCACTCTATATAAATATCTCTCACTTATTTAAA	–	0.0929	0.155	–
ACAGACGAAGGAGCCGCAAAGAAGTTATTAAGGGATGAATAATCCCTCAATATAAATAGCTCTCACTTATTTAAA	–	0.637	0.616	cleaved RNA product abundance [4]: 0.688
CGACATGTCCCGCTTCTTTCATTAAGCCGTTACCAACTGTTTTGCTATATACATTTACCTTTTAAGAGGAGGAAT	0.21	–	–	–
ACAGACGAAGGAGCCGCAAAGAAATTATTAAGGGATGAATAATCCCTCATTATAAATATCTCTCACTTATTTAAA	–	0.197	0.514	–
ACAGACGAAGGAGCCGCAAAGAAGTTATGAAGTGATGAATAATCCCTCAATATAAATATCTCTCACTTATTTAAA	–	0.0796	0.0812	–
ACAGACGAAGGAGCCGCAAAGAAGTTATTAAGGGATGAATAATCTCTCAATATATATATCTCTCACTTATTTAAA	–	0.682	0.989	–

Sequence	cleaved RNA product abundance [1]	cleaved RNA product abundance [2]	cleaved RNA product abundance [3]	also measured
CGACATGTCCCGCTTCTTTCATTAATCCGTTAGCAACTGTTTTGCTATCTAAATTTACCTTTTAAGAGGAGGAAT	0.123	–	–	–
ACAGACGAAGGAGCCGCAAAGAAGTTATTAAGGGATGAATAATCCTTCAAAATAAATATCTCTCACTTATTTAAA	–	0.259	0.253	–
ACAGACGAAGGAGCCGCAAAGAAGTGATTAAGGGATGAATAGTCCCTCAATATAAATATCTCTCACTTATTTAAA	–	0.184	0.274	–
ACAGACGAAGGAGCCGCAAAGAAGTTATTAAGGGATGAATAATCCCGCAATATAAATATCTCTCACTTATTTAAA	–	0.194	0.244	cleaved RNA product abundance [4]: 0.252
ACAGACGAAGGAGCCGCATAGATGTTATTAAGGGATGAATAATCCCTCAATATAAATATCTCTCACTTATTTAAA	–	–	1.38	–
CGACATGTCCCGCTTCTTTCATTAATCCGTTAGCAACTGGTTTGCTGTATACATTTACCTTTTAAGAGGAGGAAT	0.0825	–	–	–
CGACATGTCCCGCTTCTTTCATTAATCCGTTAGAAGCTGTTTTGCTATATACATTTACCTTTTAAGAGGAGGAAT	0.23	–	–	–
CGACATGTCCCGCTTCTTTCATTAATCCGTTAGGAACTGATTTGCTATATACATTTACCTTTTAAGAGGAGGAAT	0.415	–	–	–
CGACATGTCCCGCTTCTTTCATTAATCCGTTAGCAACTATTTTGCTATATACATTTAGCTTTTAAGAGGAGGAAT	1.16	–	–	–
ACAGACGAAGGAGCCGCAAACAAGGTATTAAGGGATGAATAATCCCTCAATATAAATATCTCTCACTTATTTAAA	–	–	1.23	–
CGACATGTCCCGCTTCTTTCATTAATCCGTTAGCAACAGTTTTGCTATATACATTTACGTTTTAAGAGGAGGAAT	2.01	–	–	–
ACAGACGAAGGAGCCGCAAAGAAGTTATTAAGGGATGAATGATCCCTCAATATAAATATCTCTCACTTATTTAAA	–	0.466	0.699	cleaved RNA product abundance [4]: 0.63
ACAGACGAAGGAGCCGCAAAGAAGATATTAAGGGAGGAATAATCCCTCAATATAAATATCTCTCACTTATTTAAA	–	–	0.643	–
CGACATGTCCCGCTTCTTTCATTAATCCGTTCGCAACTGTTTTGCTATATATATTTACCTTTTAAGAGGAGGAAT	0.324	–	–	–
ACAGACGAAGGAGCCGCAAAGATGTTATTAAGGGATGAATAATCCCTCTATATAAATATCTCTCACTTATTTAAA	–	–	0.447	–
ACAGACGAAGGAGCCGCCAAGAAGTTATTAAGGGATGAATAAACCCTCAATATAAATATCTCTCACTTATTTAAA	–	–	0.471	–
CGACATGTCCCGCTTCTTTCATTAATCCGTTACCAACTGTTTTGCTATATCCATTTACCTTTTAAGAGGAGGAAT	0.206	–	–	–
CGACATGTCCCGCTTCTTTCATTAATCCGTTAGCAACTGTTTTGATATATACATTTTCCTTTTAAGAGGAGGAAT	0.376	–	–	–
CGACATGTCCCGCTTCTTTCATTAATCCGTTAGCCACTGTTTTGCTATATACATTTACTTTTTAAGAGGAGGAAT	0.98	–	–	–
